Data reported in IntAct's records for PubMed 20622900.

Molecular target: mk03_human MAPK3 (UniProt P27361)
Sequence (P27361 whole entry): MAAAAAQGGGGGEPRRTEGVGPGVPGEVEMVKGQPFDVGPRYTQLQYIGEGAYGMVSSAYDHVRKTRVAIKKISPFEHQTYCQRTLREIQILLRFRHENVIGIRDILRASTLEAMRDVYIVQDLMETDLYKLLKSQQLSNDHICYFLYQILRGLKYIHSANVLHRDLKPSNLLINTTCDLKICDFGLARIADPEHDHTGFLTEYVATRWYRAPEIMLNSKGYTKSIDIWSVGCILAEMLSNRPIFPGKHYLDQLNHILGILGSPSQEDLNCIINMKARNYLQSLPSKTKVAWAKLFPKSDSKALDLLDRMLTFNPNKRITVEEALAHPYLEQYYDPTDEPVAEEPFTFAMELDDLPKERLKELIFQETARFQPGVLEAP

Substance | effect of a mutation on the interaction
Protein scribble homolog (Homo sapiens), Q14160 K1399A;R1400A | disrupting interaction
Protein scribble homolog (Homo sapiens), Q14160 R839A;R840A | decreasing interaction
